Laboratory results reported in the supplement of paper PMC10567573.

B1: EDARADD (parent)
chain: VEKVLRRWVDEEWPKRERGDPSRH
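Also: lentivirally expressed fusions sorted by FACS into six bins by GFP to DsRed ratio, PSI derived from sequencing read proportions per bin multiplied by bin number.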

Variants of: B1
Assay: protein stability index of a GFP-peptide fusion (GPS, HEK-293T) (PSI 1-6); higher = more stable
Conditions: c terminus: a fixed tail appended
For VEKVLERWVDEEWPKRERGDPSRH [R6E], the protein stability index was 3.72. In the case of VEKVLFRWVDEEWPKRERGDPSRH [R6F], the protein stability index is reported as 2.76. VEKVLGRWVDEEWPKRERGDPSRH [R6G] gave a protein stability index of 3.12. With VEKVLIRWVDEEWPKRERGDPSRH [R6I] the protein stability index was 2.47. In the case of VEKVLKRWVDEEWPKRERGDPSRH [R6K], the protein stability index is reported as 3.86. In the case of VEKVLLRWVDEEWPKRERGDPSRH [R6L], the protein stability index is reported as 2.57. In the case of VEKVLMRWVDEEWPKRERGDPSRH [R6M], the protein stability index is reported as 3.14. Work on VEKVLNRWVDEEWPKRERGDPSRH [R6N] yielded a protein stability index of 3.94. With VEKVLPRWVDEEWPKRERGDPSRH [R6P] the protein stability index was 5.27. Work on VEKVLQRWVDEEWPKRERGDPSRH [R6Q] yielded a protein stability index of 3.79. Variant VEKVLSRWVDEEWPKRERGDPSRH [R6S] has a protein stability index of 3.6. Work on VEKVLTRWVDEEWPKRERGDPSRH [R6T] yielded a protein stability index of 3.84. For VEKVLWRWVDEEWPKRERGDPSRH [R6W], the protein stability index was 3.38. With VEKVLYRWVDEEWPKRERGDPSRH [R6Y] the protein stability index was 3.13. VEKVLRAWVDEEWPKRERGDPSRH [R7A] showed a protein stability index of 3.09. VEKVLRCWVDEEWPKRERGDPSRH [R7C] showed a protein stability index of 2.35. Work on VEKVLRDWVDEEWPKRERGDPSRH [R7D] yielded a protein stability index of 4.05. Variant VEKVLREWVDEEWPKRERGDPSRH [R7E] has a protein stability index of 3.91. Variant VEKVLRFWVDEEWPKRERGDPSRH [R7F] has a protein stability index of 3.61. With VEKVLRGWVDEEWPKRERGDPSRH [R7G] the protein stability index was 3.98. VEKVLRHWVDEEWPKRERGDPSRH [R7H] showed a protein stability index of 3.56. Variant VEKVLRIWVDEEWPKRERGDPSRH [R7I] has a protein stability index of 2.32. For VEKVLRKWVDEEWPKRERGDPSRH [R7K], the protein stability index was 3.29. Variant VEKVLRLWVDEEWPKRERGDPSRH [R7L] has a protein stability index of 2.62. For VEKVLRMWVDEEWPKRERGDPSRH [R7M], the protein stability index was 2.69. For VEKVLRNWVDEEWPKRERGDPSRH [R7N], the protein stability index was 4.48. For VEKVLRPWVDEEWPKRERGDPSRH [R7P], the protein stability index was 3.9. VEKVLRQWVDEEWPKRERGDPSRH [R7Q] gave a protein stability index of 3.45. In the case of VEKVLRSWVDEEWPKRERGDPSRH [R7S], the protein stability index is reported as 3.46. VEKVLRTWVDEEWPKRERGDPSRH [R7T] gave a protein stability index of 3.6. For VEKVLRVWVDEEWPKRERGDPSRH [R7V], the protein stability index was 3.43. For VEKVLRWWVDEEWPKRERGDPSRH [R7W], the protein stability index was 2.49. For VEKVLRYWVDEEWPKRERGDPSRH [R7Y], the protein stability index was 2.7. In the case of VEKVLRRAVDEEWPKRERGDPSRH [W8A], the protein stability index is reported as 3.98. VEKVLRRCVDEEWPKRERGDPSRH [W8C] showed a protein stability index of 4.03. Variant VEKVLRRDVDEEWPKRERGDPSRH [W8D] has a protein stability index of 4.56. Work on VEKVLRREVDEEWPKRERGDPSRH [W8E] yielded a protein stability index of 4.22. Variant VEKVLRRFVDEEWPKRERGDPSRH [W8F] has a protein stability index of 3.34. In the case of VEKVLRRGVDEEWPKRERGDPSRH [W8G], the protein stability index is reported as 4.8. VEKVLRRHVDEEWPKRERGDPSRH [W8H] gave a protein stability index of 4.08. VEKVLRRIVDEEWPKRERGDPSRH [W8I] showed a protein stability index of 3.4. For VEKVLRRKVDEEWPKRERGDPSRH [W8K], the protein stability index was 4.43. Variant VEKVLRRLVDEEWPKRERGDPSRH [W8L] has a protein stability index of 2.76. In the case of VEKVLRRMVDEEWPKRERGDPSRH [W8M], the protein stability index is reported as 3.69. VEKVLRRNVDEEWPKRERGDPSRH [W8N] gave a protein stability index of 5.25. Variant VEKVLRRPVDEEWPKRERGDPSRH [W8P] has a protein stability index of 4.71. With VEKVLRRQVDEEWPKRERGDPSRH [W8Q] the protein stability index was 4.78. For VEKVLRRRVDEEWPKRERGDPSRH [W8R], the protein stability index was 4.13. VEKVLRRSVDEEWPKRERGDPSRH [W8S] showed a protein stability index of 4.97. VEKVLRRTVDEEWPKRERGDPSRH [W8T] showed a protein stability index of 4.06. With VEKVLRRYVDEEWPKRERGDPSRH [W8Y] the protein stability index was 3.12. Work on VEKVLRRWADEEWPKRERGDPSRH [V9A] yielded a protein stability index of 3.57. Variant VEKVLRRWCDEEWPKRERGDPSRH [V9C] has a protein stability index of 2.72. VEKVLRRWDDEEWPKRERGDPSRH [V9D] gave a protein stability index of 4.36. For VEKVLRRWEDEEWPKRERGDPSRH [V9E], the protein stability index was 4.17. For VEKVLRRWFDEEWPKRERGDPSRH [V9F], the protein stability index was 2.55. VEKVLRRWGDEEWPKRERGDPSRH [V9G] gave a protein stability index of 3.83. VEKVLRRWHDEEWPKRERGDPSRH [V9H] gave a protein stability index of 3.46. VEKVLRRWIDEEWPKRERGDPSRH [V9I] showed a protein stability index of 2.38. With VEKVLRRWKDEEWPKRERGDPSRH [V9K] the protein stability index was 2.9. VEKVLRRWMDEEWPKRERGDPSRH [V9M] gave a protein stability index of 3.17. For VEKVLRRWNDEEWPKRERGDPSRH [V9N], the protein stability index was 3.59. Work on VEKVLRRWPDEEWPKRERGDPSRH [V9P] yielded a protein stability index of 3.51. VEKVLRRWQDEEWPKRERGDPSRH [V9Q] showed a protein stability index of 3.31. For VEKVLRRWRDEEWPKRERGDPSRH [V9R], the protein stability index was 3.48. VEKVLRRWSDEEWPKRERGDPSRH [V9S] gave a protein stability index of 4.07. In the case of VEKVLRRWTDEEWPKRERGDPSRH [V9T], the protein stability index is reported as 3.72. Work on VEKVLRRWWDEEWPKRERGDPSRH [V9W] yielded a protein stability index of 3.05. With VEKVLRRWYDEEWPKRERGDPSRH [V9Y] the protein stability index was 3.1. VEKVLRRWVAEEWPKRERGDPSRH [D10A] gave a protein stability index of 2.53. Work on VEKVLRRWVCEEWPKRERGDPSRH [D10C] yielded a protein stability index of 2.69. With VEKVLRRWVFEEWPKRERGDPSRH [D10F] the protein stability index was 2.81. Variant VEKVLRRWVGEEWPKRERGDPSRH [D10G] has a protein stability index of 3.39. For VEKVLRRWVHEEWPKRERGDPSRH [D10H], the protein stability index was 2.44. For VEKVLRRWVIEEWPKRERGDPSRH [D10I], the protein stability index was 2.65. VEKVLRRWVKEEWPKRERGDPSRH [D10K] gave a protein stability index of 2.4. VEKVLRRWVLEEWPKRERGDPSRH [D10L] gave a protein stability index of 3.29. Work on VEKVLRRWVMEEWPKRERGDPSRH [D10M] yielded a protein stability index of 2.26. With VEKVLRRWVNEEWPKRERGDPSRH [D10N] the protein stability index was 2.71. For VEKVLRRWVPEEWPKRERGDPSRH [D10P], the protein stability index was 3.4. VEKVLRRWVQEEWPKRERGDPSRH [D10Q] showed a protein stability index of 2.73. In the case of VEKVLRRWVREEWPKRERGDPSRH [D10R], the protein stability index is reported as 2.62. Variant VEKVLRRWVSEEWPKRERGDPSRH [D10S] has a protein stability index of 3.4. Variant VEKVLRRWVTEEWPKRERGDPSRH [D10T] has a protein stability index of 2.74. For VEKVLRRWVVEEWPKRERGDPSRH [D10V], the protein stability index was 2.47. Variant VEKVLRRWVWEEWPKRERGDPSRH [D10W] has a protein stability index of 2.88. With VEKVLRRWVYEEWPKRERGDPSRH [D10Y] the protein stability index was 2.59. VEKVLRRWVDAEWPKRERGDPSRH [E11A] gave a protein stability index of 2.73. In the case of VEKVLRRWVDCEWPKRERGDPSRH [E11C], the protein stability index is reported as 2.43. With VEKVLRRWVDDEWPKRERGDPSRH [E11D] the protein stability index was 3.28. For VEKVLRRWVDFEWPKRERGDPSRH [E11F], the protein stability index was 2.16. For VEKVLRRWVDGEWPKRERGDPSRH [E11G], the protein stability index was 3.1. With VEKVLRRWVDHEWPKRERGDPSRH [E11H] the protein stability index was 2.44. Work on VEKVLRRWVDIEWPKRERGDPSRH [E11I] yielded a protein stability index of 2.7.
